Square brackets hold non-standard residues; d marks the D form. Ends that are not written are not given here. Tyr(3-NO2) = N[C@@H](Cc1ccc(O)c([N+](=O)[O-])c1)C(=O)O; Phe(4-NO2) = N[C@@H](Cc1ccc([N+](=O)[O-])cc1)C(=O)O; Tyr(3,5-Br2) = N[C@@H](Cc1cc(Br)c(O)c(Br)c1)C(=O)O; Phe(4-CN) = N#Cc1ccc(C[C@H](N)C(=O)O)cc1; Phe(4-Cl) = N[C@@H](Cc1ccc(Cl)cc1)C(=O)O; Phe(4-F) = N[C@@H](Cc1ccc(F)cc1)C(=O)O; hPhe = N[C@@H](CCc1ccccc1)C(=O)O; Phg = N[C@H](C(=O)O)c1ccccc1
T1: CMG2 38-218 (Homo sapiens, UniProt P58335)
T1 chain: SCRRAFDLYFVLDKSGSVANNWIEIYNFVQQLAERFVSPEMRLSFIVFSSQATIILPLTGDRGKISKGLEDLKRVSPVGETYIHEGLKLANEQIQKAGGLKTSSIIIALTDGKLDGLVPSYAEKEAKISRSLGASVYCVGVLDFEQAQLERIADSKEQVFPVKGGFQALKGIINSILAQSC


Target: T1, CMG2 38-218
Experiment: microscale thermophoresis

Binder	Kd
CLR[Phe(4-F)]T [CLR(4-fluoro-F)T]	49.9 µM
CLR[Tyr(3,5-Br2)]T [CLR(3,5-dibromo-Y)T]	60 µM
CLR[Phe(4-CN)]T [CLR(4-cyano-F)T]	61.4 µM
CLR[dF]T [CLR(D-Phe)T]	31 µM
CLR[Phe(4-NO2)]T [CLR(4-nitro-F)T]	36.2 µM
CLR[Phe(4-Cl)]T [CLR(4-Cl-F)T]	14 µM
CLR[Phg]T [CLR(phenylglycine)T]	59.6 µM
CLR[hPhe]T [CLR(homophenylalanine)T]	74 µM
CLR[Tyr(3-NO2)]T [CLR(3-nitro-Y)T]	112 µM

Target: T1, CMG2 38-218
Experiment: sandwich ELISA (competition with His6-PA 488-735)

Binder	IC50
CLRPT	153 µM

Source: article PMC5465072 (2017)
